The target in assay [1] is rat GPVI-hFc fusion protein (rat; mouse; human). The assay can be described thus: ELISA, immobilized rat GPVI-hFc, control. (An ELISA detects its analyte on a solid surface through an enzyme-linked reagent.)
Assay [2] deals with human GPVI-hFc fusion protein (human) (UniProt Q9HCN6). Kind of assay: ELISA, immobilized hGPVI-hFc; +++ = absorbance greater than 2.0.
Assay [3] addresses hGPVI-mL9-hFc substituted mutant protein (human) (UniProt Q9HCN6). Kind of assay: ELISA, immobilized hGPVI-mL9-hFc.
In assay [4] the target is human GPVI-hFc fusion protein (human) (UniProt Q9HCN6). The assay can be described thus: ELISA, immobilized hGPVI-hFc; ++ = absorbance 1.0 to 2.0.
For assay [5] the target is unchanged. The assay can be described thus: ELISA, immobilized hGPVI-hFc; + = absorbance 0.5 up to 1.0.

rat GPVI-hFc fusion protein (rat; mouse; human), sequence (P0C191 205-265): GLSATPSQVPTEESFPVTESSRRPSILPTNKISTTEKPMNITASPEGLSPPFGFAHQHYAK

normal mouse IgG (antibody) registered an absorbance at 450 nm (absorbance 450 nm) in assay [1] of 0.123.

B1: F1249-18-2 (antibody, from a related filing, V domains shown)
VH: QVQLQQPGAELVKPGASVKLSCKASGYTFTSYWMHWLKQRPGQGLEWIGMIHPNSDITNYNEKFKNKATLTVDKSSSTAYMQLSSLTSEDSAVYYCARSGDYYAMDYWGQGTSVTVSS
VL: SIVMTQTPKFLLVSAGDRVTITCKASQSVSNDVAWYQQKPGQSPKLLIYYASNRYTGVPDRFTGSGYGTDFTFTISTVQAEDLAVYFCQQDYSSPPTFGGGTKLEIKR
B1: the absorbance in assay [2] is above 2 od; in assay [3] it was below 0.5 od.

B2: F1249-5-1 (antibody, from a related filing, V domains shown)
VH: QVQLQQPGAELVKPGASVKLSCKASGYTFTSYWMHWLKQRPGQGLEWIGMIHPNSDITNYNEKFKNKATLTVAKSSSTAYMQLSSLTSEDSAVYYCARLGDYYAMDYWGQGTSVTVSS
VL: SIVMTQTPKFLLVSAGDRVTITCKASQSVSNDVTWYQQKPGQSPKLLIYYASNRYTGVPDRFTGSGYGTDFTFTISTVQAEDLAVYFCQQDYSSPPTFGGGTKLEIKR
As for B2, the absorbance in assay [3] was below 0.5 od; in assay [4], 1 to 2 od.

B3: F1245-4-1 (antibody, from a related filing, V domains shown)
VH: QVQLQQPGAELVKPGASVKLSCKASGCTFTSYWMHWVKQRPGQGLEWIGMIHPNSDNTNYNEKFKSKATLTVDKSSSTAYMHLSSLTSEDSAVYYCATHYYDYVDYWGQGTTLTVSS
VL: NIVMTQTPKFLLVSAGDRVTITCKASQSVSNDVAWYQQKPGQSPKLLIYYASNRYTGVPDRFTGSGYGTDFTFTISTVQAEDLAVYFCQQDYSSPWTFGGGTKLEIKR
Turning to B3, the values for the absorbance in assay [2] and in assay [3] were above 2 od and below 0.5 od, respectively.

B4: F1245-5-1 (antibody, from a related filing, V domains shown)
VH: QVQLQQPGAELVKPGASVKLSCKASGYTFISYWMHWVKQRPGQGLEWIGMIHPNSGSTHYNEKFKSKATLTVDKSSSTAYMQLSSLTSEDSAVYYCARGGVTPVAYWGQGTLVTVSA
VL: SIVMTQTPKFLLVSAGDRVTITCKASQSVSNDVAWYQQKPGQSPKLLIYYASNRYTGVPDRFTGSGYGTDFTFTISTVQAEDLAVYFCQQDYSSPWTFGGGTKLEIKR
As to B4, the values for the absorbance in assay [3] and in assay [4] were below 0.5 od and 1 to 2 od, respectively.

B5: F1245-6-2 (antibody, from a related filing, V domains shown)
VH: QVQLQQPGAELVKPGASVKLSCKASGYTFTSYWMHWVKQRPGQGLEWIGMIHPNSGSTNYNEKFKSKATLTVDKSSSTAYMQLSSLTSEDSAVYYCARGGVTPVAYWGQGTLVTVSA
VL: SIVMTQTPKFLLVSAGDRVTITCKASQSVSNDVAWYQQKPGQSPKLLIYYASNRYTGVPYRFTGSGYGTDFTFTISTVQAEDLAVYFCQQDYSSPWTFGGGTKLEIKR
With B5, the values for the absorbance in assay [3] and in assay [4] were below 0.5 od and 1 to 2 od, respectively.

B6: F1232-37-2 (antibody, from a related filing, V domains shown)
VH: VQLQQSGPELVRPGESVKISCKGSGYTFTDYAIHWVKLSHAKSLEWIGVISIYYDDTNYNQKFKGKATMTVDKSSSTAYLELARLTSEDSAIYYCARRRDSSGPYAMDYWGQGTSVTVSS
VL: DIVLTQSPASLAVSLGQRATISCRASESVDSYGNSFMHWYQQKPGQPPKLLIYRASNLESGIPARFSGSGSRTDFTLTINPVEADDVATYYCQQSNEDPYTFGGGTKLEIKR
In assay [3], B6 yielded an absorbance below 0.5 od. Moreover, the absorbance at 450 nm (absorbance 450 nm) in assay [1] turned out to be 0.137.

B7: F1246-1-1 (antibody, from a related filing, V domains shown)
VH: EVQLVESGGDLVKPGGSLKLSCAASGFTFSSYGMSWVRQTPDKRLEWVATISNGGTYTYYPDSVKGRFTISRDNAKNTLYLQMSSLKSDDTAMYYCGRLRDYYAMDYWGQGTSVTVSS
VL: DIVLTQSPASLAVSLGQRATISCRASESVDSYGNSFMHWYQQKPGQPPKLLIYRASNLESGIPARFSGSGSRTDFTLTINPVEADDVATYYCQQSNEDPWTFGGGTKLEIKR
As for B7, the absorbance in assay [3] was below 0.5 od; in assay [4], 1 to 2 od.

B8: F1249-3-2 (antibody, from a related filing, V domains shown)
VH: EVQLVESGGGLVKPGGSLKLSCAASGFTFSSYGMSWVRQTPDKRLEWVATISSGGSYTYYSDSVKGRFTISRDNAKNNLYLQLSSLKSQDTAIYYCARDSGYFDYWGQGTTLTVSS
VL: NIVLTQSPASLAVSLGQRATISCRASESVDSYGNSFMHWYQQKPGQPPKLLIYLASNLESGVPARFSGSGSRTDFTLTIDPVEADDAATYYCQQNNEDPRTFGGGTKLEIKR
For B8, the absorbance in assay [3] was below 0.5 od; in assay [5], 0.5 to 1 od.

B9: F1249-20-1 (antibody, from a related filing, V domains shown)
VH: QVQLQQSGAELVRPGVSVKISCKGSGYTFTDYAMHWVKQSHAKSLEWIGVISTYYGDTSYNQKFKGKATMTVDKSSSTAYMELARLTSEDSAIYYCARAEDYDPWFAYWGQGTLVTVSA
VL: DIVLTQSPASLAVSLGQRATISCRASESVDSYGNSFMYWYQQKPGQPPKLLIYRASNLESGIPARFSGSGSRTDFTLTINPVEADDVATYYCQQSDEDPLTFGAGTKLELKR
Take B9: the absorbance in assay [2] was above 2 od; in assay [3], below 0.5 od.

B10: F1249-24-1 (antibody, from a related filing, V domains shown)
VH: QVQLQQSGAELVRPGVSVKISCKGSGYTFTDYAMHWVKQSHAKSLEWIGVISTYYGDTSYNQKFKGKATMTVDKSSSTAYMELARLTSEDSAIYYCARAEDYDPWFAYWGQGTLVTVSA
VL: DIVLTQSPASLAVSLGQRATISCRASESVDSYGNSFMHWYQQKPGQPPKLLIYRASNLESGIPARFSGSGSRTDFTLTINPVEADDVATYYCQQSDEDPLTFGAGTKLELKR
For B10, the values for the absorbance in assay [2] and in assay [3] were above 2 od and below 0.5 od, respectively.

B11: F1249-30-1 (antibody, from a related filing, V domains shown)
VH: QVQLQQSGAELVRPGVSVKISCKGSGYTFTDYAMHWVKQSHAKSLEWIGVISTYYGDTSYNQKFKGKAAMTVDKSSSTAYMELARLTSDDSAIYYCARAEDYDPWFAYWGQGTLVTVSA
VL: DIVLTQSPASLAVSLGQRATISCRASESVDSYGNSFMHWYQQKPGQPPKLLIYRASNLESGIPARFSGSGSRTDFTLTINPVEADDVATYYCQQSDEDPLTFGAGTKLELKR
Turning to B11, the values for the absorbance in assay [2] and in assay [3] were above 2 od and below 0.5 od, respectively.

B12: F1245-7-1 (antibody, from a related filing, V domains shown)
VH: QVQLQQPGAELVKPGASVKLSCKASGYTFTSYWMHWVKQRPGQGLEWIGMIHPNSGSTNYNEKFKSKATLTVDKSSSTAYMQLSSLTSEDSAVYYCASPVTAVVEYYFDYWGQGTTLTVSS
VL: SIVMTQTPKFLLVSAGDRVTITCKASQSVSNDVAWYQQKPGQSPKLLIYYASNRYTGVPDRFTGSGYGTDFTFTISTVQAEDLAVYFCQQDYSSLTFGSGTKLEIKR
For the molecule B12, the results for the absorbance in assay [3] and in assay [4] were below 0.5 od and 1 to 2 od, respectively.

Values taken from patent US20130011868A1.
